Earlier results on one substance are cited in paper PMC4225561.

In the data set the target is Myo4p 27-residue fragment (Saccharomyces cerevisiae) (UniProt P32492). Description: pull-down.
UniProt P32492, sequence (P32492 528-554): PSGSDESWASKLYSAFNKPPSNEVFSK

Take She4p (from UniProt P51534): the Kd was 1000 nM.
